assay: yeast display, Sf9 membrane polyspecificity reagent, FACS + sequencing; frameworks hold sequencing errors
Summary of the method: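 Galactose induction of a Saccharomyces cerevisiae BJ5465 synthetic nanobody display library ran 36–48 hours. The cells were then stained for 1 hour at 4 °C with 10% biotinylated, detergent-solubilized Sf9 membrane reagent, pulled down on streptavidin microbeads and FACS-sorted into low and high (top ~1%) gates on expression and reagent-binding fluorescence. Labels for polyreactivity follow the gate of origin.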

| Sequence | polyreactivity (PSR sort gate) |
| --- | --- |
| QVHLVESGGGLVQAGGSLRLSCAASGRIFGGNVMGWYIQAPGKERELVAAISWSSGSTYYADSVKVLFTISLDNAKNTVYLQMNSQKPDDTSFYYCAADNSFRGYHSPYDYWGQGTQVTVSS | low polyreactivity |
| QVHLVESGGGLVQAGGSLRLSCAASGRIFGKYAMGWYRQAPGKERELVAAISSSGRTNSADSVKGRFTISRDNAKNTVYLQMNSLKPADTAVYYCAVRVLIHTNTRRLDYWGQGTQVTVSS | high polyreactivity |
| QVHLVESGGGLVQAGGSLRLSCAASGRIFNYYAMGWYRQAHGKERELVAAISNGGSTYYADSVKGRFTISRDNAKNTVYLQMNSLKPEDTAVYYCNAAARNGYARRVYYWGQGTQVTVSS | high polyreactivity |
| QVHLVESGGGLVQAGGSLRLSCAASGRIFSVYAMGWYRQAPGKERELVAVITTSGGSTYYADSVKGRFTISRGNAKNTVYLQMNSLKPEDTAVYYCNAEPWSYAIGSYEYWGQGTQVTVSS | high polyreactivity |
| QVHLVESGGGLVQAGGSLRLSCAASGRIFTYYAMGWYRQAPGKEREFVAAIRRSGGSTDYADSVKGRFTISRDNAKNTVYLQMNSLKPEDTAVYYCAAESPTYPGGEYWGQGTQVTVSS | high polyreactivity |
| QVHLVESGGGLVQAGGSLRLSCAASGRIFWLYAMGWYRQAPGKERELVAAISSGGSTSYADSVKGRFTISRDNAKNTVYLQMNSLKPEDTAVYYCNATLLFPLLYGPESGEFDYWGQGTQVTVSS | low polyreactivity |
| QVHLVESGGGLVQAGGSLRLSCAASGRLSQNAMGGYRQAPGKERELVAAITFSGGSTYYADSVKGRFTISRDNAKNTVYLQMNSLKPEDTAVYYCAADDRPLYWRFPDEMDYWGQGTQVTVSS | low polyreactivity |
| QVHLVESGGGLVQAGGSLRLSCAASGRNFAYNAMGWYRQAPGKETELVASFTSGGSTNYADSVKGRFTISRDNANNTVYLQMNSLKPEDSAVYYCNKDGKYHRVLYDYWGQGTQVTVSS | low polyreactivity |
| QVHLVESGGGLVQAGGSLRLSCAASGRNFYANAMGWYRQAPGKERELVAAISSGGSTYYADSVKGRFTISRDNAKNTVYLQMKSLKPEDTAVYYCAVYTHKKVRPEYDYWGQGTQVTVSS | low polyreactivity |
| QVHLVESGGGLVQAGGSLRLSCAASGRTCRINAMGWYRQAPGKERELVAAITSGGRTNYADSVKGRFTISRDNAKNTVYLQMNSLKPEDTAVYYCAADTTHWYYLGYGYWGQGNQVTVSS | low polyreactivity |
| QVHLVESGGGLVQAGGSLRLSCAASGRTFATYALGWYRQAPGKERELVAAISSGGSTYYADSVKGRFTISRDNAKNTVYLQMNSLKPEDTAVYYCAAARKYYGYNYWGQGTQVTVSS | high polyreactivity |
| QVHLVESGGGLVQAGGSLRLSCAASGRTFDINAMGWYRQAPGKERELVAAISSRGGTTFYADSVKGRFTISRDHAKNTVYLQMNSLKPEDTAVYYCAAEYSSYYTRGGSYNYWGQGTQVTVSS | low polyreactivity |
| QVHLVESGGGLVQAGGSLRLSCAASGRTFDLNVMGWYRQAPGKERELVAAISFSGGSTYYADSVKGRFTISRDNAKNTVYLQMNSLKPEDTAVYYCSADEYSADSVPSWYDYWGQGTQVTVSS | high polyreactivity |
| QVHLVESGGGLVQAGGSLRLSCAASGRTFGINAMGWNRQAPGKERELVAVISFGDGGTYYADSVKGRFTISRDNAKNTVYLQMNSLKPEDTAVYYCATDYQSTSVWGGHFVINPYDYWGQGTQVTVSS | low polyreactivity |
| QVHLVESGGGLVQAGGSLRLSCAASGRTFGWNVMGWYRQAPGKERELVAAISGSGGSTYYADSVKVRFTISRDNAKNTVYLQMNSLKPEDTAVYYCAALYGPGREYDYWGQGTQVTVSS | low polyreactivity |
| QVHLVESGGGLVQAGGSLRLSCAASGRTFKGYAMGWYRQAPGKERELVASINWSDGNTYYADSVKGRFTISRDNAKNTVYLQMNSLKPEDTAVYYCNVRRGDRFVRHDYWGQGTQVTVSS | low polyreactivity |

| Sequence | polyreactivity (PSR sort gate) |
| --- | --- |
| QVHLVESGGGLVQAGGSLRLSCAASGRTFKYNTMGWYRQAPGKERELVAVISRSGGRTYYADSVKGRFTISRDNAKNTVYFQMNSLKPEDTAVYYCAKGIPYSDPQSAYDDYWGQGTQVTVSS | high polyreactivity |
| QVHLVESGGGLVQAGGSLRLSCAASGRTFPYTAMGSYRQAPGKERELVAAISSGGSTNYADSVKGRFTISRDNAKNTVYLQMNSLKPEDTAVYYCATKYQRRPYRYYYWGQGTQVSVSS | low polyreactivity |
| QVHLVESGGGLVQAGGSLRLSCAASGRTFRSYAMGWYRQAPGKERELVAAISWSGGSTYYADSVKGRFTISRDNAKNTVYLQMNSLKPEDTAVYYCAASYFYFPYTSDEGYWGQGTQVTVSS | high polyreactivity |
| QVHLVESGGGLVQAGGSLRLSCAASGRTFYSYTMAWYRQAPGKERELVAAINRGGSTYYADSVKGRFTISRDKAKNTVYLQMNSLKEEDTAVYYFAVGYAHSSNRRYYYQKTHGYWGQGTQVTVSS | low polyreactivity |
| QVHLVESGGGLVQAGGSLRLSCAASGRTIKRYAMGWYRQAPGKERELVATISRSGSSTYYADSVKGRFTISRANAMNTVYLQMNSLKPEDTAVYYCNAYVPDIWVNGYDSWGQGTQVTVSS | high polyreactivity |
| QVHLVESGGGLVQAGGSLRLSCAASGRTYDYYAMGWYRQAHGKERELVAAIRLISGNTYYADSVKGRFTISRDNAKNTVYLQMNSLKPEDTAVYYCARQGYVLYYYWGQGTQVTVSS | low polyreactivity |
| QVHLVESGGGLVQAGGSLRLSCAASGSICNPYAMGWYRQAPGKEGELVAAINRGGTSTYYADSVKGRFTISRDNAKNNVYLQMNSLKPEDTAVYYCNADYPYYEDGDTVRDDYWGQGTQVTVSS | low polyreactivity |
| QVHLVESGGGLVQAGGSLRLSCAASGSIFGGYAMGWSRQAPGKERELVAAISYRGASTYYADSVKGRFTISRDNAKNTVYLQMNSLKPEDTAVYYCNADDRGSTYVDFDYWGQGTQVTVSS | low polyreactivity |
| QVHLVESGGGLVQAGGSLRLSCAASGSIFGNNAMGWYRQAPGKERELVAAISSGGSTNYADSVKGRFTISRDNAKNTVYLQMNSLKPEDTAFYYCAKHSWSRAFSWATRLHWRYDYWGQGTQVTVSS | low polyreactivity |
| QVHLVESGGGLVQAGGSLRLSCAASGSIFGPYVMGWYRQAPGKEREFVAAIRGSGGSTYYADTVKGRFTISRDNAKNTVYLQMTSLKPEDTAVYYCNASLKYTLYYYWGQGTQVTVSS | high polyreactivity |
| QVHLVESGGGLVQAGGSLRLSCAASGSIFGYNTMGWYRQAPGKERELVAAISYSSGSTHYADSVKGRFTISRVNAKNTVYLQMNSLKPEDTAVYYSTSVRRWSFGYWGQGTQVTVSS | low polyreactivity |
| QVHLVESGGGLVQAGGSLRLSCAASGSIFPRNAMGWYRQAPGKERELVAAISSGGGRTYYADSVKGRFTISRDNAKNTVYLQMNSLKPVDTAVYYCAREVWGYRWLYPVYILDYWGQGTQVTVSS | high polyreactivity |
| QVHLVESGGGLVQAGGSLRLSCAASGSIFQPYAIRWYRQAPGKERELVAAISSSGGSTTYADSVKGRFTISRDNAKNTVYLQMTSLKPEDTAVYYCAADSADDMGYWGQGTQVTVSS | low polyreactivity |
| QVHLVESGGGLVQAGGSLRLSCAASGSIFSLYAMGWYRQAPGKERELVAAITRSGAGTYYADSVKGRFTISRDNAKNTVYLQLNSLKPEDTAVYYCANRTKTPTGYVWGGYDYWGQGTQVTVSS | high polyreactivity |
| QVHLVESGGGLVQAGGSLRLSCAASGSIFSSNTMGWYRQATGKERELVAAISWSGGRTRYADSVKGRFTISRDNAKNTVYLQMNSLKPEDNAVYYCNAGTVASTLYDVRTHFDYWGQGTQVTVSS | low polyreactivity |
